Assay results taken from the supplement of paper PMC9170038.

System: MS2 coat protein
Assay: apparent KD of MS2 coat protein; designed switch direction (-1 OFF switch, 1 ON switch): -1; higher = weaker reporter binding
Procedure, shortened: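 Transcription of designed RNA switches on Illumina chips was done by stalled E. coli RNA polymerase. SNAP-549-labelled MS2 coat protein was then titrated in doubling steps from 0.7 or 1.5 nM to 3 µM, with steps of 0.8–1.5 h at the lowest and 10–20 min at the highest concentration. The per-design median over clusters of curve-fitted normalised fluorescence is reported as apparent KD.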

[1] = input ligand: microRNA oligo, concentration not stated
[2] = Eterna round: R95, input ligand: FMN 200 uM
[3] = Eterna round: R95, input ligand: microRNA oligo, concentration not stated
[4] = Eterna round: R95, input ligand: none

Sequence: ACAUCACAGCUAGGAUAUAUAUGACAUGAGGAUCACCCAUGUUGUCCCAUGUUGACGAAAACCGAAUAGAAGGAGCCACAGAUG [Ex NG2 #3] (Eterna round: R96, puzzle: Exclusion NG 2)
- apparent KD of MS2 coat protein (input ligand: FMN 200 uM): 0.0913 µM
- apparent KD of MS2 coat protein [1]: 0.0615 µM
- apparent KD of MS2 coat protein (input ligand: none): 0.0672 µM

Sequence: GUCCUCUUGACAUGAGGAUCACCCAUGUUUUAUUUGUUAACUGAGGAUAUACUCUUAUUUUUUAUGUAGAAGGCAGUUUUGUUC [JR_ExcNG3_Sub023] (Eterna round: R96, puzzle: Exclusion NG 3)
- apparent KD of MS2 coat protein (input ligand: FMN 200 uM): 0.0826 µM
- apparent KD of MS2 coat protein [1]: 0.022 µM
- apparent KD of MS2 coat protein (input ligand: none): 0.0263 µM

Sequence: UUGAAGUCGUCAGGAUAUAGUUUUAAUGUCAUGCGUAUGUUCUUACAUGAGGAUCACCCAUGUCGCUAGAAGGGACUAAAGAUU [JR_ExcNG2_Sub010] (Eterna round: R96, puzzle: Exclusion NG 2)
- apparent KD of MS2 coat protein (input ligand: FMN 200 uM): 0.0439 µM
- apparent KD of MS2 coat protein [1]: 0.0334 µM
- apparent KD of MS2 coat protein (input ligand: none): 0.0444 µM

Sequence: UAUAUAUAGUAAGGAUAUGUAUUAAAUUUAUAAACAGAAGGUACUGACAUGAGGAUCACCCAUGUUUUAGUGUGGGCAUGUAGA [JMF's solution 75] (Eterna round: R96, puzzle: Exclusion NG 1)
- apparent KD of MS2 coat protein [1]: 0.069 µM

Sequence: AAAACAAACUUUUUGCUCGUCUUAUAUGACGCUCGAGUCACAUGAGGAUCACCCAUGUCUUCCUGUUUGAUAGUUGA [JR_SV3TOV2_Sub055] (puzzle: Sensor v3, turn-off variant 2)
- apparent KD of MS2 coat protein [2]: 0.113 µM
- apparent KD of MS2 coat protein [3]: 0.113 µM
- apparent KD of MS2 coat protein [4]: 0.142 µM

Sequence: AGCUGUGGCCGAGGAUAUCUGAUAGUCCCAACCGAAAUAUAAUCGGACAUGAGGAUCACCCAUGUAGAGAAGGCGGUCUCAGCA [Eli eng2 - 070] (Eterna round: R96, puzzle: Exclusion NG 2)
- apparent KD of MS2 coat protein (input ligand: FMN 200 uM): 0.214 µM
- apparent KD of MS2 coat protein [1]: 0.0579 µM
- apparent KD of MS2 coat protein (input ligand: none): 0.0739 µM

Sequence: UAUAUGUCAGGAUAUCGAUUGGAACAGAAUUUAACAAUGGUCGAGAAGGGACAUGAGGAUCACCCAUGUUCAAC [JR_Ex4_Sub020] (Eterna round: R97, puzzle: Exclusion 4)
- apparent KD of MS2 coat protein (input ligand: FMN 200 uM): 0.0273 µM
- apparent KD of MS2 coat protein (input ligand: none): 0.0219 µM

Sequence: AGAUCACAUGAGGAUCACCCAUGUGAGGAUAUGAUACUAUGUACUUCGGUACAUAGUAUCAGAAGGCGCGUGAA [Ex1-3: 72] (puzzle: Exclusion 1)
- apparent KD of MS2 coat protein [3]: 0.0285 µM

Sequence: UAAUUAAUAAGAUCAAUUAAUUAACAUGAGGAUCACCCAUGUGAGGAUAUCAGCUCGAUUAGAGCUGAGAAGGCACAAUAAUUA [ExNG3/17-C1] (Eterna round: R96, puzzle: Exclusion NG 3)
- apparent KD of MS2 coat protein [1]: 0.039 µM

Sequence: GGAGCAAGUGUCAGGAUAUCGUGGUCGAUAGAUCACGAGAAGGGACAUGAGGAUCACCCAUGUGCCUCAGCUCC [Mat - Exclusion 4 - Eli Mod - D60] (Eterna round: R97, puzzle: Brourd's mod of Exclusion 4)
- apparent KD of MS2 coat protein (input ligand: FMN 200 uM): 0.736 µM
- apparent KD of MS2 coat protein (input ligand: none): 0.214 µM

Sequence: GACCACUCAGGAUAUCGGACGGGAAACAUGAGGAUCACCCAUGUGAUGCUGAUAUUCGCACGAGAAGGGAGAAUGA [EX5 B.21] (Eterna round: R97, puzzle: Exclusion 5)
- apparent KD of MS2 coat protein (input ligand: FMN 200 uM): 0.0198 µM
- apparent KD of MS2 coat protein (input ligand: none): 0.0188 µM

Sequence: CCGCAUAUGCAGGAUAUCGUAUCGGAAACGAUACGAGAAGGGUAAACAUGAGGAUCACCCAUGUUCCUUAACGG [Fiskers Ex 6 - 28] (puzzle: Exclusion 6)
- apparent KD of MS2 coat protein [3]: 0.0146 µM

Sequence: UCGUGUAUAGAGGAUAUAUUAUUUUUUUUAACAAUAGAAGGCUAAACAUGAGGAUCACCCAUGUAUUUGGUUUU [JR_Ex6_Sub051] (Eterna round: R97, puzzle: Exclusion 6)
- apparent KD of MS2 coat protein (input ligand: FMN 200 uM): 0.0692 µM
- apparent KD of MS2 coat protein (input ligand: none): 0.0229 µM

Sequence: CACAUGUCAGGAUAUGGUCAAGACACAGAAUUAGCUGCGAGCCAGAAGGGACAUGAGGAUCACCCAUGUUCCUG [Eternabot (L1) Solution 58] (Eterna round: R97, puzzle: Exclusion 4)
- apparent KD of MS2 coat protein (input ligand: FMN 200 uM): 0.0195 µM
- apparent KD of MS2 coat protein (input ligand: none): 0.0163 µM

Sequence: GGUUGGCGAGGAUAUACAUGAGGAUCACCCAUGUGAGAGAAACUAGUGAGGUCGAUUGGUAGAAGGCGCUGACG [Mat - Exclusion 3 - Mod of JL D81] (puzzle: Exclusion 3)
- apparent KD of MS2 coat protein [2]: 0.0253 µM
- apparent KD of MS2 coat protein [3]: 0.204 µM
- apparent KD of MS2 coat protein [4]: 0.129 µM

Sequence: GUCACAUGGGUGUAGAAUCACAUGAGGAUCACCCAUGUGACUAACAAGCUUUUUGCUCGUCUUAUGUCUAUGUGAAU [Stov1/17-A2] (Eterna round: R97, puzzle: Sensor, turn-off variant 1)
- apparent KD of MS2 coat protein (input ligand: FMN 200 uM): 0.0233 µM
- apparent KD of MS2 coat protein (input ligand: none): 0.0372 µM

Sequence: AUCCCUUGAGUAAGGAUAUGGCCAGGGAGGUCUGGCCAGAAGGUACAUGAGGAUCACCCAUGUAGGUUGUCGCA [Eternabot (L2) Solution 44] (Eterna round: R97, puzzle: Brourd's mod of Exclusion 4)
- apparent KD of MS2 coat protein (input ligand: FMN 200 uM): 0.056 µM
- apparent KD of MS2 coat protein (input ligand: none): 0.0206 µM

Sequence: AUUAUGUCAGGAUAUCAGUAGUAAAAAAAAAAAAUUACUACUGAGAAGGGACAUGAGGAUCACCCAUGUCAAAA [EX4 308: Super Stable 8] (Eterna round: R96, puzzle: Exclusion 4)
- apparent KD of MS2 coat protein [1]: 0.0213 µM

Sequence: AUAGGGUCAGGAUAUACGAGCAGGAGGAUGGAGCGGAGGCGGUAGAAGGGACAUGAGGAUCACCCAUGUAAGAA [JR_Exclu4_Sub052] (puzzle: Exclusion 4)
- apparent KD of MS2 coat protein [2]: 0.0214 µM
- apparent KD of MS2 coat protein [3]: 0.0163 µM
- apparent KD of MS2 coat protein [4]: 0.0192 µM

Sequence: GCAAGCUUUUGCUCGUCUUACAUGAGGAUCACCCAUGUCGGGCCCGGGCUUCGUGGCCGGGCCCGCCGGGCGCCGGG [-37, -64.6 kcal, A 10%] (Eterna round: R97, puzzle: Sensor, turn-off variant 1)
- apparent KD of MS2 coat protein (input ligand: FMN 200 uM): 0.0565 µM
- apparent KD of MS2 coat protein (input ligand: none): 0.0704 µM

Sequence: UGAGUAGAUCCGAAGGGAGACAUGAGGAUCACCCAUGUAUUAAGUUUUUAUGCUCGUCGCCUACGUAACCGUAGGAC [Eternabot (Original) Solution 2] (Eterna round: R97, puzzle: Sensor, turn-off variant 1)
- apparent KD of MS2 coat protein (input ligand: FMN 200 uM): 0.344 µM
- apparent KD of MS2 coat protein (input ligand: none): 0.36 µM

Sequence: AAUUGACGCCAAAUAUACAACAUGAGGAUCACCCAUGUACCCUAGGUACGCUCGCAGGCAAGCUUUGCUCGUCCACA [Eternabot (L1) Solution 33] (Eterna round: R97, puzzle: Sensor, turn-off variant 1)
- apparent KD of MS2 coat protein (input ligand: FMN 200 uM): 0.0402 µM
- apparent KD of MS2 coat protein (input ligand: none): 0.0479 µM

Sequence: UAGGAUACCGUCAGGAUAUAGAGUUCCCACAGACUCUAGAAGGGACAUGAGGAUCACCCAUGUCGUGCAACGUU [Eternabot (L1) Solution 54] (Eterna round: R97, puzzle: Brourd's mod of Exclusion 4)
- apparent KD of MS2 coat protein (input ligand: FMN 200 uM): 0.0202 µM
- apparent KD of MS2 coat protein (input ligand: none): 0.0162 µM

Sequence: ACAUGAGGAUCACCCAUGUAAUCAUAAUGGCUGAUGUAGAGUCAGGAUAUGUGUGGCUUACUAUCGCAGAAGGGACAAGACUGG [Deportation 33 - Jieux - Exclusion NG 3] (Eterna round: R96, puzzle: Exclusion NG 3)
- apparent KD of MS2 coat protein (input ligand: FMN 200 uM): 0.0263 µM
- apparent KD of MS2 coat protein [1]: 0.0142 µM
- apparent KD of MS2 coat protein (input ligand: none): 0.0259 µM

Sequence: AGAAGUAUAGGAUAUACGUCUGCGCACAUGAGGAUCACCCAUGUCGUGUUCCGUGGCAGAGUAGAAGGGUACGGAC [EX5 B.11] (Eterna round: R97, puzzle: Exclusion 5)
- apparent KD of MS2 coat protein (input ligand: FMN 200 uM): 0.305 µM
- apparent KD of MS2 coat protein (input ligand: none): 0.219 µM

Sequence: CCCAGUUAGUGAGGAUAUCCUACAUGAGGAUCACCCAUGUAAUAAAUGAGGAUUUCGGGUGUCUAGGAGAAGGCACGGAUAGGC [Ostracism 24 - Jieux - Exclusion NG 2] (Eterna round: R96, puzzle: Exclusion NG 2)
- apparent KD of MS2 coat protein (input ligand: FMN 200 uM): 0.0793 µM
- apparent KD of MS2 coat protein [1]: 0.036 µM
- apparent KD of MS2 coat protein (input ligand: none): 0.0448 µM

Sequence: AGAUCCACCGAGGAUAUUGGAGUGAUAUCACUCUAAGAAGGCGGUACAUGAGGAUCACCCAUGUGAUACCCAGA [Eternabot (Original) Solution 15] (Eterna round: R97, puzzle: Exclusion 6)
- apparent KD of MS2 coat protein (input ligand: FMN 200 uM): 0.551 µM
- apparent KD of MS2 coat protein (input ligand: none): 0.316 µM

Sequence: UUAAUUAAUUAUAUAAGAUCACAUGAGGAUCACCCAUGUAUAUAGGAUAUCAGCUCGAUUAGAGCUGAGAAGGAUAUACAAUAU [ExNG3/3-B1] (Eterna round: R96, puzzle: Exclusion NG 3)
- apparent KD of MS2 coat protein (input ligand: FMN 200 uM): 0.172 µM
- apparent KD of MS2 coat protein [1]: 0.138 µM
- apparent KD of MS2 coat protein (input ligand: none): 0.147 µM

Sequence: GGGUGUCGAGUUAGGAUAUCGAUGCCGUAACGGCUCGAGAAGGGACUUGAGGAUCACCCAAGUCUGGUCGAGGC [Rierariis] (Eterna round: R97, puzzle: Brourd's mod of Exclusion 4)
- apparent KD of MS2 coat protein (input ligand: FMN 200 uM): 0.0234 µM
- apparent KD of MS2 coat protein (input ligand: none): 0.0184 µM

Sequence: UGAUCAGACCGAGGAUAUAUAUGUAGGACCCACGUGAGUGGGUCCAGAACAUGAGGAUCACCCAUGUAGAAGGCGGUCUGAUCU [JL ENG2 1.88] (Eterna round: R96, puzzle: Exclusion NG 2)
- apparent KD of MS2 coat protein (input ligand: FMN 200 uM): 0.019 µM
- apparent KD of MS2 coat protein [1]: 0.0115 µM
- apparent KD of MS2 coat protein (input ligand: none): 0.0162 µM

Sequence: AUUUUGUGAGGAUAUCAGGUGUGCUAGCGUACUGGUACAUCUGAGAAGGCACAUGAGGAUCACCCAUGUUUAUU [Mat - Exclusion 4 - Mod of JL - D39] (puzzle: Exclusion 4)
- apparent KD of MS2 coat protein [3]: 0.0256 µM

Sequence: ACAUGCCUUGCAGGAUAUAGGACACAUGAGGAUCACCCAUGUGGUUUCAUGUCUAACCAAGCGUCCUAGAAGGGCGGGAACAUG [Ex NG2 #28] (Eterna round: R96, puzzle: Exclusion NG 2)
- apparent KD of MS2 coat protein (input ligand: FMN 200 uM): 0.0449 µM
- apparent KD of MS2 coat protein [1]: 0.0258 µM
- apparent KD of MS2 coat protein (input ligand: none): 0.0365 µM

Sequence: UACCGUGGUUAGGAUAUACCGUGACACCGCUGAGUAGAAGGAACCACAUGAGGAUCACCCAUGUAAUAUGAAGG [Eternabot (L2) Solution 94] (Eterna round: R97, puzzle: Exclusion 6)
- apparent KD of MS2 coat protein (input ligand: FMN 200 uM): 0.159 µM
- apparent KD of MS2 coat protein (input ligand: none): 0.0519 µM
